Series [1] addresses T1, Rv2034AE A32G;E35G (Mycobacterium tuberculosis) (UniProt O53478).
T1 sequence: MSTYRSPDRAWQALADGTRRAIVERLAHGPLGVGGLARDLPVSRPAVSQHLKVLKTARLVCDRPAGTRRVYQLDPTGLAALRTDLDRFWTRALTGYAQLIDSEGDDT
Kind of series: EMSA. For orientation: In EMSA bound probe runs differently from free probe, usually more slowly.

Series [2] concerns the target T2, Rv2034C61A C61A (Mycobacterium tuberculosis) (UniProt O53478).
T2 sequence: T1 sequence with G32A, G35E, C61A
Kind of series: EMSA.

The target in series [3] is T3, Rv2034 (ArsR family regulator) (Mycobacterium tuberculosis, UniProt O53478 1-107).
T3 sequence: T1 sequence with G32A, G35E
Kind of series: EMSA; up to 1.2 uM protein. The settings on record: protein: recombinant, tags: N-terminal His6 (pET28a), chain copies: 2, label: 5' label (32P or FITC).

In series [4] the target is T3, Rv2034 (ArsR family regulator). Kind of series: EMSA; 0.1-1.2 uM protein. The settings on record: protein: recombinant, tags: N-terminal His6 (pET28a), chain copies: 2, label: 5' label (32P or FITC).

Where a chain is given by its changes, count along the chain named.

For the molecule “AATTTCTAGAGCCTGCGGCAAGCACGTCGGTTCCATAGCGATCCAGCACGCCGCAATACTAGGGAGCCTCTCTGCCGGTCATCGCCGCGACGCGCCGCATGGGTTCTCGGAAAATGCTTGTACCAGTCGACTTTCCGGCGGGCCAACGTCGCCAACCGATACTCGGCTCCAACGCCATGGGTGACGGGATGCCCGGATCACGTGTCACACCACCCGCGCACCCTTGCGGAAGAATATCCGTAAGTCTAAACTTACGGTTCGAATTCCCGG (double strand) [Rv2034p promoter]”, the binding entry in series [1] and in series [2] was “no binding” throughout.

B1: Rv2034BSmu2 (dsDNA)
DNA 1: GGAAGAATATGGCATTCACTAAACTGCATGTTCGTGTCCA
DNA 2: TGGACACGAACATGCAGTTTAGTGAATGCCATATTCTTCC
Regarding B1, in series [3] (blunt), the binding result was “no binding”.

B2: Rv2034BSmu5 (dsDNA)
DNA 1: B1 DNA 1 with A23C, C24A, T25G, G30A
DNA 2: B1 DNA 2 with C11T, A16C, G17T, T18G
In the case of B2, the binding result in series [3] is “no binding”.

B3: Rv2034BSmu3 (dsDNA)
DNA 1: GGAAGAATATCCGTAAGTCTGATAAAACTTACGGTTCGTGTCCA
DNA 2: TGGACACGAACCGTAAGTTTTATCAGACTTACGGATATTCTTCC
B3: the binding result in series [4] (blunt) is on record as “binds”.

B4: Rv2034BSmu4 (dsDNA)
DNA 1: AGAGTTGATACCGTAAGTTAGCACTTACGGACTTAAGGTT
DNA 2: AACCTTAAGTCCGTAAGTGCTAACTTACGGTATCAACTCT
Regarding B4, the binding result in series [4] is recorded as “binds”.

For the origin of these results see paper PMC3338718, “Characterization of a Novel ArsR-Like Regulator Encoded by Rv2034 in Mycobacterium tuberculosis”.
